Test results published in paper PMC5856775.

How the values were obtained:
[1] = molecular target: BAX; test: Strep-tactin pull-down from HeLa lysate, label-free quantification mass spectrometry; conditions: three biological repeats measured in three technical repeats each; -log10(p-value) est. 1.7; read off a plot
[2] = molecular target: COPS7A; test: as above; conditions: three biological repeats measured in three technical repeats each; -log10(p-value) est. 2.2; read off a plot
[3] = molecular target: EIF1; test: as above; conditions: three biological repeats measured in three technical repeats each; -log10(p-value) est. 1.2; read off a plot
[4] = molecular target: FAM91A1; test: as above; conditions: three biological repeats measured in three technical repeats each; -log10(p-value) est. 3.0; read off a plot
[5] = molecular target: GPHN; test: as above; conditions: three biological repeats measured in three technical repeats each; -log10(p-value) est. 1.3; read off a plot
[6] = molecular target: HSP90AB4P; test: as above; conditions: three biological repeats measured in three technical repeats each; -log10(p-value) est. 1.0; read off a plot
[7] = molecular target: KIF18B (UniProt Q86Y91); test: as above; conditions: three biological repeats measured in three technical repeats each; -log10(p-value) est. 1.5; read off a plot
[8] = molecular target: LYST; test: as above; conditions: three biological repeats measured in three technical repeats each; -log10(p-value) est. 0.97; read off a plot
[9] = molecular target: NUP35; test: as above; conditions: three biological repeats measured in three technical repeats each; -log10(p-value) est. 3.6; read off a plot
[10] = molecular target: Nbla03646; test: as above; conditions: three biological repeats measured in three technical repeats each; -log10(p-value) est. 2.1; read off a plot
[11] = molecular target: RacGAP1 (UniProt Q9H0H5); test: as above; conditions: three biological repeats measured in three technical repeats each; -log10(p-value) est. 2.8; read off a plot
[12] = molecular target: SMG8; test: as above; conditions: three biological repeats measured in three technical repeats each; -log10(p-value) est. 2.2; read off a plot
[13] = molecular target: TIMM13; test: as above; conditions: three biological repeats measured in three technical repeats each; -log10(p-value) est. 2.6; read off a plot
[14] = molecular target: TUBA1A; test: as above; conditions: three biological repeats measured in three technical repeats each; -log10(p-value) est. 3.7; read off a plot
[15] = molecular target: TUBA3C; test: as above; conditions: three biological repeats measured in three technical repeats each; -log10(p-value) est. 4.2; read off a plot
[16] = molecular target: TUBB2B; test: as above; conditions: three biological repeats measured in three technical repeats each; -log10(p-value) est. 3.6; read off a plot
[17] = molecular target: TUBB4A; test: as above; conditions: three biological repeats measured in three technical repeats each; -log10(p-value) est. 3.8; read off a plot
[18] = molecular target: UBL4A; test: as above; conditions: three biological repeats measured in three technical repeats each; -log10(p-value) est. 1.4; read off a plot
[19] = molecular target: ANAPC10; test: Strep-tactin pull-down, mass spectrometry spectral counting; conditions: complexes SUMOylated in vitro, HeLa lysate added; three biological repeats measured in three technical repeats each
[20] = molecular target: ANAPC13; test: as above; conditions: complexes SUMOylated in vitro, HeLa lysate added; three biological repeats measured in three technical repeats each
[21] = molecular target: ANAPC15; test: as above; conditions: complexes SUMOylated in vitro, HeLa lysate added; three biological repeats measured in three technical repeats each
[22] = molecular target: ANAPC16; test: as above; conditions: complexes SUMOylated in vitro, HeLa lysate added; three biological repeats measured in three technical repeats each
[23] = molecular target: ANAPC1; test: as above; conditions: complexes SUMOylated in vitro, HeLa lysate added; three biological repeats measured in three technical repeats each
[24] = molecular target: ANAPC2; test: as above; conditions: complexes SUMOylated in vitro, HeLa lysate added; three biological repeats measured in three technical repeats each
[25] = molecular target: ANAPC5; test: as above; conditions: complexes SUMOylated in vitro, HeLa lysate added; three biological repeats measured in three technical repeats each
[26] = molecular target: CDC16; test: as above; conditions: complexes SUMOylated in vitro, HeLa lysate added; three biological repeats measured in three technical repeats each
[27] = molecular target: CDC23; test: as above; conditions: complexes SUMOylated in vitro, HeLa lysate added; three biological repeats measured in three technical repeats each
[28] = molecular target: CDC26; test: as above; conditions: complexes SUMOylated in vitro, HeLa lysate added; three biological repeats measured in three technical repeats each
[29] = molecular target: CDC27; test: as above; conditions: complexes SUMOylated in vitro, HeLa lysate added; three biological repeats measured in three technical repeats each
[30] = molecular target: ANAPC10; test: Strep-tactin pull-down, label-free quantification mass spectrometry; conditions: complexes SUMOylated in vitro, HeLa lysate added; three biological repeats measured in three technical repeats each
[31] = molecular target: ANAPC13; test: as above; conditions: complexes SUMOylated in vitro, HeLa lysate added; three biological repeats measured in three technical repeats each
[32] = molecular target: ANAPC15; test: as above; conditions: complexes SUMOylated in vitro, HeLa lysate added; three biological repeats measured in three technical repeats each
[33] = molecular target: ANAPC16; test: as above; conditions: complexes SUMOylated in vitro, HeLa lysate added; three biological repeats measured in three technical repeats each
[34] = molecular target: ANAPC1; test: as above; conditions: complexes SUMOylated in vitro, HeLa lysate added; three biological repeats measured in three technical repeats each
[35] = molecular target: ANAPC2; test: as above; conditions: complexes SUMOylated in vitro, HeLa lysate added; three biological repeats measured in three technical repeats each
[36] = molecular target: ANAPC5; test: as above; conditions: complexes SUMOylated in vitro, HeLa lysate added; three biological repeats measured in three technical repeats each
[37] = molecular target: CDC16; test: as above; conditions: complexes SUMOylated in vitro, HeLa lysate added; three biological repeats measured in three technical repeats each
[38] = molecular target: CDC23; test: as above; conditions: complexes SUMOylated in vitro, HeLa lysate added; three biological repeats measured in three technical repeats each
[39] = molecular target: CDC26; test: as above; conditions: complexes SUMOylated in vitro, HeLa lysate added; three biological repeats measured in three technical repeats each
[40] = molecular target: CDC27; test: as above; conditions: complexes SUMOylated in vitro, HeLa lysate added; three biological repeats measured in three technical repeats each

Chain of UniProt Q86Y91 (Q86Y91 whole entry, looked up): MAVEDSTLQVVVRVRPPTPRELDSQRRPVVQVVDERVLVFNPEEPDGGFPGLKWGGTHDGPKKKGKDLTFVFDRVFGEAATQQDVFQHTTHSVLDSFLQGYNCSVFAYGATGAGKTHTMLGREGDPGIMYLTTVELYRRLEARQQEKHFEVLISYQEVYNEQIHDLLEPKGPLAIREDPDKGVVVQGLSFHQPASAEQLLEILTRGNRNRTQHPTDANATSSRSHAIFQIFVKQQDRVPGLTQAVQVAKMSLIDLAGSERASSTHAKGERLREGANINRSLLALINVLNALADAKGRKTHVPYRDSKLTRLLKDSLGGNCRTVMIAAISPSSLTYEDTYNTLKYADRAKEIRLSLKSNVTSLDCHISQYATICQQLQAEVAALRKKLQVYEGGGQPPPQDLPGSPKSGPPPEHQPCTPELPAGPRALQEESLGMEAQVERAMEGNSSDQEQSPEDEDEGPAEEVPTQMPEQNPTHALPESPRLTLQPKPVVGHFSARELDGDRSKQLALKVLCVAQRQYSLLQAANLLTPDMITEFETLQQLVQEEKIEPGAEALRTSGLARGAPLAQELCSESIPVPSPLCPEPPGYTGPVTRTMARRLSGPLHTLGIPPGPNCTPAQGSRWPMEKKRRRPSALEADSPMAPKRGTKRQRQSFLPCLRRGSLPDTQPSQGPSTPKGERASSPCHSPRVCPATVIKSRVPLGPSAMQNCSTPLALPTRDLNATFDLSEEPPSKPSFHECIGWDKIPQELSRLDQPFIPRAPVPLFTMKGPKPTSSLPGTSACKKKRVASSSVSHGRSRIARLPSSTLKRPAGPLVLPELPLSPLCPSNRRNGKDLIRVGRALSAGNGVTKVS
Chain of UniProt Q9H0H5 (Q9H0H5 whole entry, looked up): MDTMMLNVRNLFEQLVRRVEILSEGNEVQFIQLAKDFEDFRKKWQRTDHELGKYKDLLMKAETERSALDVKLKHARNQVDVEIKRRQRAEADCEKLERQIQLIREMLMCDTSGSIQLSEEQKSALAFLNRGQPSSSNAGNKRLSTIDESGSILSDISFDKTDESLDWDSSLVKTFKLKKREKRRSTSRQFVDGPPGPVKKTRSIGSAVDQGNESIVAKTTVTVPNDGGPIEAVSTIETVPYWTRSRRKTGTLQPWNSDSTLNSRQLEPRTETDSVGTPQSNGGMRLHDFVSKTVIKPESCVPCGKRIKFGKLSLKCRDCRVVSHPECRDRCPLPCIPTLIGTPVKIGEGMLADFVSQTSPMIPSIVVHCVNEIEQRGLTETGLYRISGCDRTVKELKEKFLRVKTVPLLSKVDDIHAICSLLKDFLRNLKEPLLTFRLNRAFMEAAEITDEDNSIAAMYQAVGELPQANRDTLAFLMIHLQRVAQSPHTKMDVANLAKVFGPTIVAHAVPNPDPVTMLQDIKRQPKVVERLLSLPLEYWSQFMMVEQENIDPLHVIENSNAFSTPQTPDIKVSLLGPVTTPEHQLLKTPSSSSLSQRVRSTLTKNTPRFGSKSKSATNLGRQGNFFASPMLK

SUMOylated recombinant APC/C containing APC4 wild type (from UniProt Q9UJX5;P55854;Q9UJX3;Q9NYG5;Q9H1A4;Q9UJX6;P30260;Q9UJX4;Q9UJX2;P60006) K772R; K798R
other: Ratio (log2) of protein intensities, wild-type APC4 / mutant APC4 [1]: 1.3 log2 | other: Ratio (log2) of protein intensities, wild-type APC4 / mutant APC4 [2]: 1 log2 | other: Ratio (log2) of protein intensities, wild-type APC4 / mutant APC4 [3]: -1.6 log2 | other: Ratio (log2) of protein intensities, wild-type APC4 / mutant APC4 [4]: 2.4 log2 | other: Ratio (log2) of protein intensities, wild-type APC4 / mutant APC4 [5]: -1.7 log2 | other: Ratio (log2) of protein intensities, wild-type APC4 / mutant APC4 [6]: 2.5 log2 | other: Ratio (log2) of protein intensities, wild-type APC4 / mutant APC4 [7]: 1.8 log2 | other: Ratio (log2) of protein intensities, wild-type APC4 / mutant APC4 [8]: 3.8 log2 | other: Ratio (log2) of protein intensities, wild-type APC4 / mutant APC4 [9]: -1.4 log2 | other: Ratio (log2) of protein intensities, wild-type APC4 / mutant APC4 [10]: -2.9 log2 | other: Ratio (log2) of protein intensities, wild-type APC4 / mutant APC4 [11]: -1.6 log2 | other: Ratio (log2) of protein intensities, wild-type APC4 / mutant APC4 [12]: -1 log2 | other: Ratio (log2) of protein intensities, wild-type APC4 / mutant APC4 [13]: -1.8 log2 | other: Ratio (log2) of protein intensities, wild-type APC4 / mutant APC4 [14]: -1.5 log2 | other: Ratio (log2) of protein intensities, wild-type APC4 / mutant APC4 [15]: -1.9 log2 | other: Ratio (log2) of protein intensities, wild-type APC4 / mutant APC4 [16]: 4.3 log2 | other: Ratio (log2) of protein intensities, wild-type APC4 / mutant APC4 [17]: -1 log2 | other: Ratio (log2) of protein intensities, wild-type APC4 / mutant APC4 [18]: -1.4 log2

Strep-tagged APC4 wild type of the recombinant APC/C, SUMOylated in vitro (from UniProt Q9UJX5;P55854) K772R; K798R
other: MS/MS ratio (WT/mutant, log2) [19]: 0.34 log2 | other: MS/MS ratio (WT/mutant, log2) [20]: 0.12 log2 | other: MS/MS ratio (WT/mutant, log2) [21]: 0.2 log2 | other: MS/MS ratio (WT/mutant, log2) [22]: 0.19 log2 | other: MS/MS ratio (WT/mutant, log2) [23]: 0.26 log2 | other: MS/MS ratio (WT/mutant, log2) [24]: 0.08 log2 | other: MS/MS ratio (WT/mutant, log2) [25]: 0.17 log2 | other: MS/MS ratio (WT/mutant, log2) [26]: 0.23 log2 | other: MS/MS ratio (WT/mutant, log2) [27]: 0.31 log2 | other: MS/MS ratio (WT/mutant, log2) [28]: 0.17 log2 | other: MS/MS ratio (WT/mutant, log2) [29]: 0.24 log2 | other: LFQ ratio (WT/mutant, log2) [30]: 0.44 log2 | other: LFQ ratio (WT/mutant, log2) [31]: 0.25 log2 | other: LFQ ratio (WT/mutant, log2) [32]: 0.4 log2 | other: LFQ ratio (WT/mutant, log2) [33]: 0.37 log2 | other: LFQ ratio (WT/mutant, log2) [34]: 0.35 log2 | other: LFQ ratio (WT/mutant, log2) [35]: 0.4 log2 | other: LFQ ratio (WT/mutant, log2) [36]: 0.22 log2 | other: LFQ ratio (WT/mutant, log2) [37]: 0.34 log2 | other: LFQ ratio (WT/mutant, log2) [38]: 0.33 log2 | other: LFQ ratio (WT/mutant, log2) [39]: 0.49 log2 | other: LFQ ratio (WT/mutant, log2) [40]: 0.36 log2
